Here are results for nine molecules from patent US20190224274, “MIF INHIBITORS AND METHODS OF USE THEREOF” (The Johns Hopkins University, published 2019).

Numbering of substitutions follows the chain as printed.

The target of series [1] is T1, MIF (Homo sapiens, UniProt P14174 P14174:1-115).
T1 sequence: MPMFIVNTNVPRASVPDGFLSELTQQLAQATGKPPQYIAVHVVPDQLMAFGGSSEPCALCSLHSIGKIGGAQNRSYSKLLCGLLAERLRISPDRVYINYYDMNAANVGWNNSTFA
As to the kind of experiment: EMSA; 10 mM Mg2+. Conditions: tags: GST tag removed (pGex-6P-1); chain copies: 3 (inferred, trimer by FPLC); label: 5' biotin. The protocol:
In parallel with the ssDNA studies, MIF was tested to see if it binds to dsDNA using PS³⁰, poly A, PS³⁰ sequence-related substrates (5′bPS³⁰, 5′bSL, 5′bLF, 5′bRF, 5′bPA³⁰, and 5′bPASE) as well as non-related sequences (PCS and 5′bL3) (FIG. 3B and FIG. 19).
(§1) EMSA assay was performed using LightShift Chemiluminescent EMSA kit (Thermo Scientific) following the manufactures instruction. Briefly, purified MIF protein (2 μM) was incubated with biotin-labeled DNA substrates (10 nM) in the binding buffer containing 10 mM MgCl₂ for […] on ice. Then samples were separated on 6% retardation polyacrylamide followed by electrophoretic transfer to nylon membrane.
On the technique in general: Mobility shift assays separate free from complexed probe on a gel.

Series [2] has as its target T1, MIF. The experiment in a line: EMSA; 10 mM Mg2+; no obvious effect vs PS30. The following applies: tags: GST tag removed (pGex-6P-1); chain copies: 3 (inferred, trimer by FPLC); label: 5' biotin; stem loop, no 3' unpaired bases.
Experimental: 5′ biotin labeled ssPS³⁰ and its sequence-related substrates with different structures by removing unpaired bases at the 5′ end, 3′ end, both 5′ and 3′ ends or eliminating the stem loop were used in the EMSA (FIG. 3B, and FIG. 19).
EMSA assay was performed using LightShift Chemiluminescent EMSA kit (Thermo Scientific) following the manufactures instruction. Briefly, purified MIF protein (2 μM) was incubated with biotin-labeled DNA substrates (10 nM) in the binding buffer containing 10 mM MgCl₂ for 30 mM on ice. Then samples were separated on 6% retardation polyacrylamide followed by electrophoretic transfer to nylon membrane. Then, Biotin-labeled DNA is further detected by chemiluminescence using Chemiluminescent Nucleic Acid Detection Module (Thermo Scientific).
The target of series [3] is T1, MIF. The experiment in a line: EMSA; 10 mM Mg2+. The following applies: tags: GST tag removed (pGex-6P-1); chain copies: 3 (inferred, trimer by FPLC); label: 5' biotin; stem loop, 1 unpaired 3' base.
A further series addresses T2, MIF D17A (Homo sapiens, UniProt P14174 P14174:1-115, D17A).
T2 sequence: T1 sequence with D17A
As to the kind of experiment: EMSA; 10 mM Mg2+; text prints P17A. Conditions: tags: GST tag removed; chain copies: 3; label: 5' biotin; stem loop with unpaired 5' and 3' bases. The protocol:
(§2) Both single stranded and double stranded forms of two classes of MIF DNA binding motifs were examined for MIF binding and cleavage specificity. The ssPS³⁰ sequence was synthesized with a 5′ biotin label and subjected to an electrophoretic mobility shift assay (EMSA) (FIG. 18C).
as §1

A further series deals with T3, MIF D17Q (Homo sapiens, UniProt P14174 P14174:1-115, D17Q).
T3 sequence: T1 sequence with D17Q
As to the kind of experiment: EMSA; 10 mM Mg2+; text prints P17Q. The following applies: tags: GST tag removed; chain copies: 3; label: 5' biotin; stem loop with unpaired 5' and 3' bases. On the procedure: as §2, §1

A further series addresses T4, MIF E22Q (Homo sapiens, UniProt P14174 P14174:1-115, E22Q).
T4 sequence: T1 sequence with E22Q
The experiment in a line: EMSA; 10 mM Mg2+. Conditions: tags: GST tag removed; chain copies: 3 (inferred); label: 5' biotin; stem loop with unpaired 5' and 3' bases. The protocol: as §2, §1

A further series has as its target T5, MIF E22A (Homo sapiens, UniProt P14174 P14174:1-115, E22A).
T5 sequence: T1 sequence with E22A
As to the kind of experiment: EMSA; 10 mM Mg2+. The following applies: tags: GST tag removed; chain copies: 3 (inferred); label: 5' biotin; stem loop with unpaired 5' and 3' bases. The protocol: as §2, §1

The target in a further series is T6, MIF P16A (Homo sapiens, UniProt P14174 P14174:1-115, P16A).
T6 sequence: T1 sequence with P16A
The experiment in a line: EMSA; 10 mM Mg2+. The following applies: tags: GST tag removed; chain copies: 3; label: 5' biotin; stem loop with unpaired 5' and 3' bases. On the procedure: as §2, §1

B1: dsL3 (dsDNA)
DNA 1: ACCTAAATGCTAGAGCTCGCTGATCAGCCT
DNA 2: AGGCTGATCAGCGAGCTCTAGCATTTAGGT
With B1, the binding result with MIF [1] is given as “no binding”.

B2: dsPA30 (dsDNA)
DNA 1: AAAAAAAAAAAAAAAAAAAAAAAAAAAAAA
DNA 2: TTTTTTTTTTTTTTTTTTTTTTTTTTTTTT
For B2, the binding result with MIF [1] was “no binding”.

B3: dsRF (dsDNA)
DNA 1: TCCCAAGTAGCTGGGATTACAGGAAAAAAA
DNA 2: TTTTTTTCCTGTAATCCCAGCTACTTGGGA
Consider B3, for which the binding result in the series with MIF [1] is reported as “no binding”.
Turning to AAAAAAACTCAGCCTCCCAAGTAGCTGGGA (ssDNA) [LF], the binding result with MIF [2] is reported as “binds”.

B4: dsSL (dsDNA)
DNA 1: CCTGTAATCCCAAGTAGCTGGGATTACAGG
DNA 2: CCTGTAATCCCAGCTACTTGGGATTACAGG
As for B4, the binding result in the series with MIF [1] is on record as “no binding”.

B5: dsLF (dsDNA)
DNA 1: AAAAAAACTCAGCCTCCCAAGTAGCTGGGA
DNA 2: TCCCAGCTACTTGGGAGGCTGAGTTTTTTT
For B5, the binding result with MIF [1] was “no binding”.
As to AAAAAAAAAACAAGTAGCTGGGATTACAGG (ssDNA) [3F1], the binding result with MIF [3] is “binds”.
In the case of CTCAGCCTCCCAAGTAGCTGGGATTACAGG (ssDNA) [PS30], the binding result with MIF D17A, with MIF D17Q, in the series with MIF E22Q, with MIF E22A and with MIF P16A was “binds” each time.

B6: dsPS30 (dsDNA)
DNA 1: CTCAGCCTCCCAAGTAGCTGGGATTACAGG
DNA 2: CCTGTAATCCCAGCTACTTGGGAGGCTGAG
For the molecule B6, in the series with MIF [1], the binding result is recorded as “no binding”.
